Test results taken from patent publication US20200157237A1 (BROAD INSTITUTE, published 2020).

Columns and labels:
[1] = target: the molecule itself; assay: purification of recombinant CD5L (FIG. 8A)
Il12rb1 = target: T1, Il12rb1 (mouse, UniProt Q60837 20-738); assay: flow cytometry, His-tagged CD5L:p40 and anti-His antibody on T cells of wildtype or Il12rb1KO mice (FIG. 56A)
T1 construct: whole, on cells; Tie to CD5L:p40 rests on loss of staining and of effect in knockout cells; also called Ilrb1
T1 sequence (looked up): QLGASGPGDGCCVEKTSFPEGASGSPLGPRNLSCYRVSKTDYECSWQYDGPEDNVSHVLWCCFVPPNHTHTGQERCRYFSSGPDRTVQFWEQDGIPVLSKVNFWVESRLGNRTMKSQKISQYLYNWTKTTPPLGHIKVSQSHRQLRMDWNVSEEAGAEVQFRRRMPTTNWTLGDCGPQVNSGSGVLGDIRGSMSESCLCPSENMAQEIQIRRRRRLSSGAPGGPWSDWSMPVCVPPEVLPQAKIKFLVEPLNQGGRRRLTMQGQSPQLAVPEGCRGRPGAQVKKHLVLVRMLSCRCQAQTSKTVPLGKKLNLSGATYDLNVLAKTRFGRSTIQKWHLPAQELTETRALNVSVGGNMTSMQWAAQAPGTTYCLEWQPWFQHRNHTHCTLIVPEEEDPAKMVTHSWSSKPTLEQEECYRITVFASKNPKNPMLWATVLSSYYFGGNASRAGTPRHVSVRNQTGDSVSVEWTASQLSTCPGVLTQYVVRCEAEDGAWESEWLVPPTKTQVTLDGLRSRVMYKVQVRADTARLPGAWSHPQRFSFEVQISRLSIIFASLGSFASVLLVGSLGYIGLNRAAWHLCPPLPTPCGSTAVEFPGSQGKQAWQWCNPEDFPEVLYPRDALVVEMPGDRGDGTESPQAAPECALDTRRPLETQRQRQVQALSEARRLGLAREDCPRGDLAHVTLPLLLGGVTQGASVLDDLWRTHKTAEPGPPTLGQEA
Description: FIG. 56A-F—Recombinant CD5L:p40 can bind to Th17 cells directly and alters T cell signaling pathways and metabolism. A) recombinant CD5L:p40 (his-tagged) were used to stain pathogenic Th17 cells (IL-1b+IL-6+IL-23),Th1 cells (IL-12) or Th0 cells differentiated from naïve T cells isolated from wildtype or Il12rb1KO mice followed by anti-His antibodies and analysis by flow cytometry. B-D) As Stat3 and Stat4 regulate IL-17 responses, we analyzed pStat3 and pStat4 expression. B-C) CD5L:p40 suppresses pStat3. 28 nM recombinant CD5L:p40 were used to stimulate naïve T cells in the presence of 10 ug/ml of anti-CD3 antibodies (TCR) with or without other indicated cytokines (B) or to stimulate Th17p cells (C) and cells were harvested for phosphoflow preparation and analysis of pStat3 at the indicated time points. D) CD5L:p40 suppresses pStat4 but not pTyk2. Western blotting analysis of pStat4 and pTyk2 expression by Th17p cells (equal protein loaded per lane) differentiated from naïve T cells isolated from wildtype mice and subjected to stimulation by either control (C), CD5L monomer (L), CD5L homodimer (LL), CD5L:p40 (L4) or p40:p40 homodimer (44) for the indicated time. E) CD5L:p40 suppresses pRictorY, pS6 and p38. To study whether CD5L:p40 influence other signaling pathways, we analysed several other phospho-proteins as indicated. […]

B1: recombinant CD5L monomer with His tag (mCD5L construct) (ligand)
chain: ESPTKVQLVGGAHRCEGRVEVEHNGQWGTVCDDGWDRRDVAVVCRELNCGAVIQTPRGASYQPPASEQRVLIQGVDCNGTEDTLAQCELNYDVFDCSHEEDAGAQCENPDSDLLFIPEDVRLVDGPGHCQGRVEVLHQSQWSTVCKAGWNLQVSKVVCRQLGCGRALLTYGSCNKSTQGKGPIWMGKMSCSGQEANLRSCLLSRLENNCTHGEDTWMECEDPFELKLVGGDTPCSGRLEVLHKGSWGSVCDDNWGEKEDQVVCKQLGCGKSLHPSPKTRKIYGPGAGRIWLDDVNCSGKEQSLEFCRHRLWGYHDCTHKEDVEVICTDFDVTGHHHHHHH
notes: Made by Biolegend in 293E cells, purified on Ni Sepharose and Superdex S200 (monomer fraction); also called soluble CD5L; sCD5L
binding result [1]: binds

B2: recombinant CD5L:p40 heterodimer (genetically linked mouse p40-linker-CD5L with His tag) (ligand)
chain: MWELEKDVYVVEVDWTPDAPGETVNLTCDTPEEDDITWTSDQRHGVIGSGKTLTITVKEFLDAGQYTCHKGGETLSHSHLLLHKKENGIWSTEILKNFKNKTFLKCEAPNYSGRFTCSWLVQRNMDLKFNIKSSSSSPDSRAVTCGMASLSAEKVTLDQRDYEKYSVSCQEDVTCPTAEETLPIELALEARQQNKYENYSTSFFIRDIIKPDPPKNLQMKPLKNSQVEVSWEYPDSWSTPHSYFSLKFFVRIQRKKEKMKETEEGCNQKGAFLVEKTSTEVQCKGGNVCVQAQDRYYNSSCSKWACVPCRVRSGGGSGGGSGGGSGGESPTKVQLVGGAHRCEGRVEVEHNGQWGTVCDDGWDRRDVAVVCRELNCGAVIQTPRGASYQPPASEQRVLIQGVDCNGTEDTLAQCELNYDVFDCSHEEDAGAQCENPDSDLLFIPEDVRLVDGPGHCQGRVEVLHQSQWSTVCKAGWNLQVSKVVCRQLGCGRALLTYGSCNKSTQGKGPIWMGKMSCSGQEANLRSCLLSRLENNCTHGEDTWMECEDPFELKLVGGDTPCSGRLEVLHKGSWGSVCDDNWGEKEDQVVCKQLGCGKSLHPSPKTRKIYGPGAGRIWLDDVNCSGKEQSLEFCRHRLWGYHDCTHKEDVEVICTDFDVTGHHHHHHHHGGQ
notes: also called mCD5L:p40; rCD5L:p40
binding result (Il12rb1): binds
